Experimental findings from article PMC4535357 are described below.

The data set addresses T1, SRSF2 (UniProt Q01130 1-221).
T1 sequence: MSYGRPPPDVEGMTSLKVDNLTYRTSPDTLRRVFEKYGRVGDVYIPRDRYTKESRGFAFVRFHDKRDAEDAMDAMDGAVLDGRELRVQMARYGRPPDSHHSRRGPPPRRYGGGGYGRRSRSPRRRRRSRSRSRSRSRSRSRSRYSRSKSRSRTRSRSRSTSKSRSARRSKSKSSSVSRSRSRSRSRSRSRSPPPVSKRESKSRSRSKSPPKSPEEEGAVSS
As to the kind of experiment: EMSA. In general terms: Mobility shift assays separate free from complexed probe on a gel.

B1: Mut-SRSF2 RNA (CGUA) (ssRNA)
RNA: GCACGUAUUC
As for B1, the binding result is reported as “no binding”.
